# Assay results taken from patent US20160185837A1 (Medimmune Limited, priority 2013, published 2016).
# Like-named read-outs stand apart in the source and are kept apart here.
# Experiments:
# Type in all cases: cell-based
# [1] = molecular target: T1, human GIP receptor (hGIPr) (Homo sapiens, UniProt P48546); assay: BSA-cAMP assay, cells expressing human GIP receptor; details: BSA-cAMP assay, read-out: hGIPr cAMP activity EC50
# T1 construct: expressed in transfected cells
# T1 sequence (P48546 22-466): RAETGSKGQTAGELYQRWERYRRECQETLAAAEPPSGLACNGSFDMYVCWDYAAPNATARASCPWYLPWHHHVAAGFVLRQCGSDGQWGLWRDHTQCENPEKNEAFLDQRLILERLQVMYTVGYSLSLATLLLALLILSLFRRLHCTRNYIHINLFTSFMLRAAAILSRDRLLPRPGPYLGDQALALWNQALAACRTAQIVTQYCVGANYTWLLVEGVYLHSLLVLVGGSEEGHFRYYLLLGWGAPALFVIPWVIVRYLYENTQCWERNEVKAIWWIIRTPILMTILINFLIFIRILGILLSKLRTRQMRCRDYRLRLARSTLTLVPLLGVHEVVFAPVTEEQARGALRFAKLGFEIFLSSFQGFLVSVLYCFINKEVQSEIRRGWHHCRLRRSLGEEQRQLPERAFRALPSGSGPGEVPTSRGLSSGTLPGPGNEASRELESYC
# In short: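 EC50 came from an unconstrained 4-parameter logistic fit of HTRF cAMP data expressed as percent of maximal native agonist activation, tested on two occasions. Thawed receptor-expressing cells (hGLP-1r, hGIPr at 0.5×10^5 cells/ml) treated 30 min at room temperature in 0.1% BSA-containing medium; two distinct hGIPr lines.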
# [2] = molecular target: T2, rat GLP-1 receptor (rGLP-1r) (Rattus norvegicus, UniProt P32301); assay: BSA-cAMP assay, cells expressing rat GLP-1 receptor; details: BSA-cAMP assay, read-out: rGLP1r cAMP activity EC50
# T2 construct: expressed in transfected cells; host or cells: HEK293s or CHO cells
# T2 sequence (P32301 22-463): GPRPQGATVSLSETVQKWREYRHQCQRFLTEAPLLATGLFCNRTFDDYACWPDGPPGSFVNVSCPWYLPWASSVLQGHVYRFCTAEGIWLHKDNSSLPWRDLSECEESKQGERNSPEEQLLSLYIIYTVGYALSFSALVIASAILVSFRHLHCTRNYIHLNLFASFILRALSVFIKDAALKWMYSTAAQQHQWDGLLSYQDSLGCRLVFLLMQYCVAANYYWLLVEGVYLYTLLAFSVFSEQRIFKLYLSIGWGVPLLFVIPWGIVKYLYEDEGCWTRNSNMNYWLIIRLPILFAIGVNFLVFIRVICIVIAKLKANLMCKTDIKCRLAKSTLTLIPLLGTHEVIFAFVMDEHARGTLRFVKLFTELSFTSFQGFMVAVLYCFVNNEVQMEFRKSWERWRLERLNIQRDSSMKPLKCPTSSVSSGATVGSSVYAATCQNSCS
# In short: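 EC50 is the midpoint of an unconstrained 4-parameter logistic fit to HTRF cAMP data, expressed as percent of maximal native agonist response, from two separate occasions. Rodent (mouse, rat) GLP-1R- or GIPR-expressing cells were incubated with compound 30 min at room temperature in 0.1% BSA medium, in duplicate.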
# hGIPr (C3) = molecular target: T3, hGIPr (C3) (Homo sapiens, UniProt P48546); assay: BSA-cAMP assay, second human GIPr cell line hGIPr (C3); details: Batch 1, second hGIPr cell line, read-out: hGIPr (C3) cAMP activity EC50
# T3 construct: expressed in transfected cells
# T3 sequence (P48546 22-466): T1 sequence (P48546 22-466)
# Experimental: For human GIPr, two different lines were used, shown as “hGIPr” and “hGIPr (C3)” in Table 11. Peptide activation of these various receptors results in downstream production of cAMP second messenger that can be measured in a functional activity assay.
# One basic cAMP assays was performed, differing in the medium used for the assay, the “BSA-cAMP assay”:
# BSA-based assay medium: 0.1% bovine serum albumin (BSA) in
# Hanks Balanced Salt Solution (GIBCO or Sigma), containing 0.5 mM IBMX (Sigma #17018);
# In certain aspects, the assay can also be carried out in medium supplemented with serum albumin that corresponds to the receptor being tested, e.g., human serum albumin for testing cAMP activity at hGIPr or hGLP-1r, rat serum albumin for testing cAMP activity at rGIPr or rGLP-1r, and so on. […]
# cAMP levels were measured using a commercially available cAMP dynamic 2 HTRF kit (Cisbio, Cat #62AM4PEJ), following the two step protocol as per manufacturer's recommendations. […] Plates were incubated at room temperature for one hour and then read on an Envision (Perkin Elmer) using excitation wavelength of 320 nm and emission wavelengths of 620 nm & 665 nm. Data was transformed to % Delta F as described in manufacturer's guidelines and then transformed to percent activation of maximal native agonist response and analysed by 4-parameter logistic fit to determine EC50 values. […]
EC50 ([1]; Batch 1) [nM],EC50 ([1]; Batch 2) [nM],EC50 ([2]; Batch 1) [nM],EC50 ([2]; Batch 2) [nM],EC50 (hGIPr (C3)) [nM],Substance
9.6,44,130,–,–,IP320 (YSEGTFTSDYAAAAEAAAAAAFAAWLAAAAGGGGGSGGGGSGGGGSGGGGSACPPC)
0.0093,–,0.057,0.01,–,IP396 (YSEGTFTSDYSKLLERQAIDEFIAWLLKGGGGGGGSGGGGSGGGGSGGGGSACPPC)
–,–,–,–,1.3,"IP412: Fc fusion, IgG1-TM, SEQ ID NO:387; agonist peptide YSEGTFTSDYSKLLEEEANRLFIEWLLAGG (YSEGTFTSDYSKLLEEEANRLFIEWLLAGGGGGGSGGGGSGGGGSGGGGSATHTCPPC)"
